B1: GpH7-B3 variant A330_05P/GpL16-k0 (antibody, human IgG1, kappa)
heavy: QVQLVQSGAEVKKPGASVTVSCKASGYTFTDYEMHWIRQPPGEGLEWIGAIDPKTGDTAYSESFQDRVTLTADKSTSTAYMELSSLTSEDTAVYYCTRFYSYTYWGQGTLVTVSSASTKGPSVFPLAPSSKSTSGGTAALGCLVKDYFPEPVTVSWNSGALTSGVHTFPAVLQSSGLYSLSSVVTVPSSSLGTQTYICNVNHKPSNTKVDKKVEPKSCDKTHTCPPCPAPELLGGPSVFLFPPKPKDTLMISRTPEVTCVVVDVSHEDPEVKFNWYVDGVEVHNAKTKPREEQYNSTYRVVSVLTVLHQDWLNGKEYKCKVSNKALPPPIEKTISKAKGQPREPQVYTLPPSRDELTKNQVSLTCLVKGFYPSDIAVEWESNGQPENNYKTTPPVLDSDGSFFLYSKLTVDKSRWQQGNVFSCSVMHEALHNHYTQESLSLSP
light: DIVMTQSPLSLPVTPGEPASISCQASESLVHSNRNTYLHWYLQKPGQSPQLLIYKVSNRFSGVPDRFSGSGSGTDFTLKISRVEAEDVGVYYCSQNTHVPPTFGQGTKVEIERTVAAPSVFIFPPSDEQLKSGTASVVCLLNNFYPREAKVQWKVDNALQSGNSQESVTEQDSKDSTYSLSSTLTLSKADYEKHKVYACEVTHQGLSSPVTKSFNRGEC
notes: both H chains altered; also called Ho Ab A330_05P
B2: GpH7-B3 variant A330_07I/GpL16-k0 (antibody, human IgG1, kappa)
heavy: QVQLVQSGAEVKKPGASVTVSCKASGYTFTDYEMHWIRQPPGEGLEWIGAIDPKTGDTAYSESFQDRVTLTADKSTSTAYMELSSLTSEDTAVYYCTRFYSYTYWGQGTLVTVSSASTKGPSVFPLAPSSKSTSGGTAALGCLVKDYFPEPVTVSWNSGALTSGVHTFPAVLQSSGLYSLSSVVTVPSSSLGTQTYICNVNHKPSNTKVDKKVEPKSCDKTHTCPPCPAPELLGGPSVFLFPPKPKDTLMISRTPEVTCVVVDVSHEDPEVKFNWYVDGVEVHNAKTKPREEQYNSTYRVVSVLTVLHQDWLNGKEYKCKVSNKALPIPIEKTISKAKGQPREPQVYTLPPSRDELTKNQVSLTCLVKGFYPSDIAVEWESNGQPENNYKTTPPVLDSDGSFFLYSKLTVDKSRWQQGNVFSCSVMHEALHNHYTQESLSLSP
light: B1 light
notes: both H chains altered; also called Ho Ab A330_07I
B3: GpH7-B3 variant E333_02A/GpL16-k0 (antibody, human IgG1, kappa)
heavy: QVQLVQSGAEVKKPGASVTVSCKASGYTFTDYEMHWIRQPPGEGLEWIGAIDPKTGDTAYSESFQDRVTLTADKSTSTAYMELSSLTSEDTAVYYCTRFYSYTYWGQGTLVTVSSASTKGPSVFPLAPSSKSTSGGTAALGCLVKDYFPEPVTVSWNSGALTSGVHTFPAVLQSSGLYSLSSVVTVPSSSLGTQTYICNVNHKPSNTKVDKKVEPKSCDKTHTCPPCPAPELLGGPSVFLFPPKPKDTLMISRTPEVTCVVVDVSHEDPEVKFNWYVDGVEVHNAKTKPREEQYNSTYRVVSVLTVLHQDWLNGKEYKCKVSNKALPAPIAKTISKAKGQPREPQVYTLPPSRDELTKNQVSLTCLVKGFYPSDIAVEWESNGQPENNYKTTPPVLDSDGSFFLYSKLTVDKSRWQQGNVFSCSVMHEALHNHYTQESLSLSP
light: B1 light
notes: both H chains altered; also called Ho Ab E333_02A
B4: GpH7-A5/GpH7-B3 variant Y300_13S/GpL16-k0 (antibody, human IgG1, kappa)
heavy 1: not shown
heavy 2: not shown
light: B1 light
notes: heterodimerized IgG1, mutation in one H chain only; also called He Ab
B5: GpH7-A5/GpH7-B3 variant Y300_14T/GpL16-k0 (antibody, human IgG1, kappa)
heavy 1: not shown
heavy 2: not shown
light: B1 light
notes: as for B4
B6: GpH7-A5/GpH7-B3 variant Y296_06M/GpL16-k0 (antibody, human IgG1, kappa)
heavy 1: not shown
heavy 2: not shown
light: B1 light
notes: as for B4
B7: GpH7-A5/GpH7-B3 variant S337_09D/GpL16-k0 (antibody, human IgG1, kappa)
heavy 1: not shown
heavy 2: not shown
light: B1 light
notes: as for B4
B8: GpH7-A5/GpH7-B3 variant I336_09D/GpL16-k0 (antibody, human IgG1, kappa)
heavy 1: not shown
heavy 2: not shown
light: B1 light
notes: as for B4
B9: GpH7-A5/GpH7-B3 variant Y300_20W/GpL16-k0 (antibody, human IgG1, kappa)
heavy 1: not shown
heavy 2: not shown
light: B1 light
notes: as for B4
B10: GpH7-A5/GpH7-B3 variant T335_12R/GpL16-k0 (antibody, human IgG1, kappa)
heavy 1: not shown
heavy 2: not shown
light: B1 light
notes: as for B4
B11: GpH7-A5/GpH7-B3 variant T335_06M/GpL16-k0 (antibody, human IgG1, kappa)
heavy 1: not shown
heavy 2: not shown
light: B1 light
notes: as for B4
B12: GpH7-A5/GpH7-B3 variant T335_18N/GpL16-k0 (antibody, human IgG1, kappa)
heavy 1: not shown
heavy 2: not shown
light: B1 light
notes: as for B4
B13: GpH7-A5/GpH7-B3 variant T335_15Y/GpL16-k0 (antibody, human IgG1, kappa)
heavy 1: not shown
heavy 2: not shown
light: B1 light
notes: as for B4
B14: GpH7-A5/GpH7-B3 variant I336_13S/GpL16-k0 (antibody, human IgG1, kappa)
heavy 1: not shown
heavy 2: not shown
light: B1 light
notes: as for B4
B15: GpH7-A5/GpH7-B3 variant S337_04F/GpL16-k0 (antibody, human IgG1, kappa)
heavy 1: not shown
heavy 2: not shown
light: B1 light
notes: as for B4
B16: GpH7-A5/GpH7-B3 variant T335_05P/GpL16-k0 (antibody, human IgG1, kappa)
heavy 1: not shown
heavy 2: not shown
light: B1 light
notes: as for B4
B17: GpH7-A5/GpH7-B3 variant Y300_11K/GpL16-k0 (antibody, human IgG1, kappa)
heavy 1: not shown
heavy 2: not shown
light: B1 light
notes: as for B4
B18: GpH7-A5/GpH7-B3 variant S337_10E/GpL16-k0 (antibody, human IgG1, kappa)
heavy 1: not shown
heavy 2: not shown
light: B1 light
notes: as for B4
B19: GpH7-A5/GpH7-B3 variant Y300_08L/GpL16-k0 (antibody, human IgG1, kappa)
heavy 1: not shown
heavy 2: not shown
light: B1 light
notes: as for B4
B20: GpH7-A5/GpH7-B3 variant S337_15Y/GpL16-k0 (antibody, human IgG1, kappa)
heavy 1: not shown
heavy 2: not shown
light: B1 light
notes: as for B4
B21: GpH7-A5/GpH7-B3 variant T335_10E/GpL16-k0 (antibody, human IgG1, kappa)
heavy 1: not shown
heavy 2: not shown
light: B1 light
notes: as for B4
B22: GpH7-A5/GpH7-B3 variant T335_08L/GpL16-k0 (antibody, human IgG1, kappa)
heavy 1: not shown
heavy 2: not shown
light: B1 light
notes: as for B4
B23: GpH7-A5/GpH7-B3 variant Y296_20W/GpL16-k0 (antibody, human IgG1, kappa)
heavy 1: not shown
heavy 2: not shown
light: B1 light
notes: as for B4
B24: GpH7-A5/GpH7-B3 variant I336_12R/GpL16-k0 (antibody, human IgG1, kappa)
heavy 1: not shown
heavy 2: not shown
light: B1 light
notes: as for B4
B25: GpH7-A5/GpH7-B3 variant T335_19Q/GpL16-k0 (antibody, human IgG1, kappa)
heavy 1: not shown
heavy 2: not shown
light: B1 light
notes: as for B4
B26: GpH7-A5/GpH7-B3 variant T335_09D/GpL16-k0 (antibody, human IgG1, kappa)
heavy 1: not shown
heavy 2: not shown
light: B1 light
notes: as for B4
B27: GpH7-A5/GpH7-B3 variant T335_07I/GpL16-k0 (antibody, human IgG1, kappa)
heavy 1: not shown
heavy 2: not shown
light: B1 light
notes: as for B4
B28: GpH7-A5/GpH7-B3 variant T335_20W/GpL16-k0 (antibody, human IgG1, kappa)
heavy 1: not shown
heavy 2: not shown
light: B1 light
notes: as for B4
B29: GpH7-A5/GpH7-B3 variant S337_20W/GpL16-k0 (antibody, human IgG1, kappa)
heavy 1: not shown
heavy 2: not shown
light: B1 light
notes: as for B4
B30: GpH7-A5/GpH7-B3 variant I336_11K/GpL16-k0 (antibody, human IgG1, kappa)
heavy 1: not shown
heavy 2: not shown
light: B1 light
notes: as for B4
B31: GpH7-A5/GpH7-B3 variant S337_06M/GpL16-k0 (antibody, human IgG1, kappa)
heavy 1: not shown
heavy 2: not shown
light: B1 light
notes: as for B4
B32: GpH7-A5/GpH7-B3 variant S337_07I/GpL16-k0 (antibody, human IgG1, kappa)
heavy 1: not shown
heavy 2: not shown
light: B1 light
notes: as for B4
B33: GpH7-A5/GpH7-B3 variant S337_08L/GpL16-k0 (antibody, human IgG1, kappa)
heavy 1: not shown
heavy 2: not shown
light: B1 light
notes: as for B4
B34: GpH7-A5/GpH7-B3 variant Y300_03V/GpL16-k0 (antibody, human IgG1, kappa)
heavy 1: not shown
heavy 2: not shown
light: B1 light
notes: as for B4
B35: GpH7-A5/GpH7-B3 variant Y296_11K/GpL16-k0 (antibody, human IgG1, kappa)
heavy 1: not shown
heavy 2: not shown
light: B1 light
notes: as for B4
B36: GpH7-A5/GpH7-B3 variant S337_19Q/GpL16-k0 (antibody, human IgG1, kappa)
heavy 1: not shown
heavy 2: not shown
light: B1 light
notes: as for B4
B37: GpH7-A5/GpH7-B3 variant T335_16H/GpL16-k0 (antibody, human IgG1, kappa)
heavy 1: not shown
heavy 2: not shown
light: B1 light
notes: as for B4
B38: GpH7-A5/GpH7-B3 variant Y300_19Q/GpL16-k0 (antibody, human IgG1, kappa)
heavy 1: not shown
heavy 2: not shown
light: B1 light
notes: as for B4
B39: GpH7-A5/GpH7-B3 variant Y296_16H/GpL16-k0 (antibody, human IgG1, kappa)
heavy 1: not shown
heavy 2: not shown
light: B1 light
notes: as for B4
B40: GpH7-A5/GpH7-B3 variant Y300_06M/GpL16-k0 (antibody, human IgG1, kappa)
heavy 1: not shown
heavy 2: not shown
light: B1 light
notes: as for B4
B41: GpH7-A5/GpH7-B3 variant T335_11K/GpL16-k0 (antibody, human IgG1, kappa)
heavy 1: not shown
heavy 2: not shown
light: B1 light
notes: as for B4
B42: GpH7-A5/GpH7-B3 variant Y300_02A/GpL16-k0 (antibody, human IgG1, kappa)
heavy 1: not shown
heavy 2: not shown
light: B1 light
notes: as for B4
B43: GpH7-A5/GpH7-B3 variant Y296_12R/GpL16-k0 (antibody, human IgG1, kappa)
heavy 1: not shown
heavy 2: not shown
light: B1 light
notes: as for B4
B44: GpH7-A5/GpH7-B3 variant I336_14T/GpL16-k0 (antibody, human IgG1, kappa)
heavy 1: not shown
heavy 2: not shown
light: B1 light
notes: as for B4

How the values were obtained:
[1] = biological target: FcγRIIIa extracellular domain with C-terminal His tag (human, UniProt P08637 17-208); test: SPR (Biacore), both H chains altered; HoCon Ab GpH7-B3/GpL16-k0 = 100
FcγRIa = biological target: T1, FcγRIa (human, UniProt P12314 16-292); test: SPR (Biacore), captured antibody, FcγRIa analyte; relative to GpH7-A5/GpH7-B3/GpL16-k0
T1 construct: extracellular domain; soluble His-tagged extracellular domain expressed in FreeStyle293 cells, used as analyte in Biacore; also called FcgRI; CD64
T1 sequence (P12314 16-292): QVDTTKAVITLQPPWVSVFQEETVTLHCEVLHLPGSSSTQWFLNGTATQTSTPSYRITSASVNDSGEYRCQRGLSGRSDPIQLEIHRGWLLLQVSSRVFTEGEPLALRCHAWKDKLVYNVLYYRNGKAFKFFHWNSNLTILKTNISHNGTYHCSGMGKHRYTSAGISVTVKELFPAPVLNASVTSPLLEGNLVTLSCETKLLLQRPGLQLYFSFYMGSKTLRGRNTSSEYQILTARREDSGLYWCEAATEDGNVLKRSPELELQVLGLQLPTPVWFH

Chain of FcγRIIIa extracellular domain with C-terminal His tag (P08637 17-208): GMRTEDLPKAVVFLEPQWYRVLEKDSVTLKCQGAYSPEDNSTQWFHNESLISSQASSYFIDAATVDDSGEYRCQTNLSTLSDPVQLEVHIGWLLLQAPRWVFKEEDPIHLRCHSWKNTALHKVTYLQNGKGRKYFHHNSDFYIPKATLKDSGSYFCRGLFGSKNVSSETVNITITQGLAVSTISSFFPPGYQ

Row | Binder | Ho/Con_3a [1] [%] | He/Con_1a (FcγRIa)
1 | B1 | 56.6 | 
2 | B2 | 93 | 
3 | B3 | 93.3 | 
4 | B4 |  | 111 relative, control = 100
5 | B5 |  | 112 relative, control = 100
6 | B6 |  | 104 relative, control = 100
7 | B7 |  | 106 relative, control = 100
8 | B8 |  | 104 relative, control = 100
9 | B9 |  | 112 relative, control = 100
10 | B10 |  | 113 relative, control = 100
11 | B11 |  | 107 relative, control = 100
12 | B12 |  | 106 relative, control = 100
13 | B13 |  | 107 relative, control = 100
14 | B14 |  | 102 relative, control = 100
15 | B15 |  | 106 relative, control = 100
16 | B16 |  | 106 relative, control = 100
17 | B17 |  | 107 relative, control = 100
18 | B18 |  | 106 relative, control = 100
19 | B19 |  | 113 relative, control = 100
20 | B20 |  | 104 relative, control = 100
21 | B21 |  | 109 relative, control = 100
22 | B22 |  | 115 relative, control = 100

Row | Binder | Ho/Con_3a [1] [%] | He/Con_1a (FcγRIa)
23 | B23 |  | 111 relative, control = 100
24 | B24 |  | 102 relative, control = 100
25 | B25 |  | 105 relative, control = 100
26 | B26 |  | 108 relative, control = 100
27 | B27 |  | 109 relative, control = 100
28 | B28 |  | 106 relative, control = 100
29 | B29 |  | 105 relative, control = 100
30 | B30 |  | 105 relative, control = 100
31 | B31 |  | 107 relative, control = 100
32 | B32 |  | 105 relative, control = 100
33 | B33 |  | 105 relative, control = 100
34 | B34 |  | 117 relative, control = 100
35 | B35 |  | 105 relative, control = 100
36 | B36 |  | 105 relative, control = 100
37 | B37 |  | 106 relative, control = 100
38 | B38 |  | 112 relative, control = 100
39 | B39 |  | 106 relative, control = 100
40 | B40 |  | 112 relative, control = 100
41 | B41 |  | 111 relative, control = 100
42 | B42 |  | 112 relative, control = 100
43 | B43 |  | 106 relative, control = 100
44 | B44 |  | 104 relative, control = 100

From patent US20150344570A1 (published 2015)
